{"source": "patent US12344663B2", "about": "“Anti-C3 antibodies and antigen-binding fragments thereof and their uses for treating eye or ocular diseases” (CDR-Life AG, priority 2021, dated 2025)", "experiment": "In vitro BrM permeation assay, Ussing chamber", "assay_type": "in vitro ADME, porcine", "conditions": "0.1 mg/ml, up to 72 h, in words", "method": "Porcine Bruch's membrane samples are used for this measurement. Porcine eyes are collected from the slaughterhouse) no more than 6 hours after the animals were sacrificed and stored at 4° C. until use (on same day).\nPreparation of enriched Bruch's Membrane (BrM): The eyes are placed into a disposable petri-dish and any residual tissue surrounding the eyeball is removed. The eyeball is incised next to the iris with a scalpel and the front part of the eye as well as lens, vitreous and retinal tissue are removed from the eyecup. […]\nSampling and membrane integrity analysis: For sampling at different timepoints (4 h, 24 h, 48 h and 72 h) the solution in the single compartments is mixed by carefully pipetting up and down and 90 μl were transferred separately from each sample and diffusate chamber to collection tubes. […] Accumulation of blue particles in the second compartment is observed and camera pictures are recorded to control for overall membrane integrity.\nSample analysis: 15 μl of each solution from the sample and diffusate chambers are effectively loaded on 2 precast polyacrylamide gels (NuPAGE Bis-Tris gels) together with a similar amount of stored mastermix as loading control. The first gel is analyzed by standard SDS-PAGE and Coomassie-based staining methods for protein detection (anti-C3 scFv). […]\nEvaluation: Pictures of the SDS-gels are analyzed using ImageJ2 software (Fiji). […]"}
{"substance": "Gly-I-[CV-Trp(Me)-QDWGAHRC]-T-NH2 [Compound A2]", "values": [{"measurement": "Diffusion/penetration through porcine Bruch's membrane", "result": "No penetration"}]}
